US20260001928A1 (CORTERIA PHARMACEUTICALS, priority 2022, published 2026)
*1 amine or outer side, *2 acyl side, *3 side chain or, on linkers, in order; H or OH if unused. Primed or numbered codes have the meaning given here. Where no end group is shown, it is not given here. Side-chain parts run from the residue outwards. [ ]: non-standard residue; d: D form. The star is where a group is joined. Thp′ = 4-amino-tetrahydro-2H-pyran-4-yl-acetic acid, O=C(CC1(N[*:1])CCOCC1)[*:2]; C18 diacid = O=C(O)CCCCCCCCCCCCCCCCC(=O)*; γGlu = O=C(O)[C@H](CCC(=O)[*:2])N[*:1]; NMeI = CC[C@H](C)[C@H](NC)C(=O)O; Api = NC1(C(=O)O)CCNCC1; Pentanoyl = CCCCC(=O)*; AEEA = NCCOCCOCC(=O)O; Aib = CC(C)(N)C(=O)O

T1: CRF1R receptor (UniProt P34998 24-415, limits assumed)
T1 sequence (looked up): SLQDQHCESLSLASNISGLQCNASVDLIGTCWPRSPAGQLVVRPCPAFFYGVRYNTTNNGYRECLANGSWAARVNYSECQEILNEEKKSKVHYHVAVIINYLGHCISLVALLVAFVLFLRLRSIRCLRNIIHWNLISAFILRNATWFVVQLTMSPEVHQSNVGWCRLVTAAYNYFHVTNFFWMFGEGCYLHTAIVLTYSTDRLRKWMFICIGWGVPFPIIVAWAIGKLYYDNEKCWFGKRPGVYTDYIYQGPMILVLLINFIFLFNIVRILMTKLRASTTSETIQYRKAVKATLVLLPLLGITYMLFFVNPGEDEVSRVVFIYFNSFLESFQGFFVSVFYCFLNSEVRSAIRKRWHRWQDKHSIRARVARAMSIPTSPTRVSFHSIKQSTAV


Experiments:
[1] = molecular target: T1, CRF1R receptor; test: cell-based or functional assay
[2] = molecular target: human corticotropin-releasing factor 2a (CRF2a receptor) (human), Q13324; test: cell-based or functional assay
Sequence of human corticotropin-releasing factor 2a (CRF2a receptor) (human), Q13324 (Q13324 20-411): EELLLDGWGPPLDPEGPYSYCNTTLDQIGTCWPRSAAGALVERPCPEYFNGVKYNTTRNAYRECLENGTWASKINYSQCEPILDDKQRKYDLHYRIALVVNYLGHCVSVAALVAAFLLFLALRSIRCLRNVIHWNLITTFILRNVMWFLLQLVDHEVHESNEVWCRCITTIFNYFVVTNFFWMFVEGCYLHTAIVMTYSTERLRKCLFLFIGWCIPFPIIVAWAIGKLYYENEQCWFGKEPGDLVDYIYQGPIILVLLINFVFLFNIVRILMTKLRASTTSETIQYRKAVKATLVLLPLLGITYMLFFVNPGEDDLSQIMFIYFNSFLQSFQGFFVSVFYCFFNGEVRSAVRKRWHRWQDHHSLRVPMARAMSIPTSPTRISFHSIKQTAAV

Binder	Emax (% I) [1] [%]	EC50 [nM] (cAMP) [2]	EC50 [1] [nM]
Ac-IVLSLD[dV]PIKLK([AEEA-AEEA-γGlu-C18 diacid])KILLEQEKQK[Aib]QREQAETN[Api]QILAQV-NH2 (SMILES CC[C@H](C)[C@H](NC(C)=O)C(=O)N[C@H](C(=O)N[C@@H](CC(C)C)C(=O)N[C@@H](CO)C(=O)N[C@@H](CC(C)C)C(=O)N[C@@H](CC(=O)O)C(=O)N[C@@H](C(=O)N1CCC[C@H]1C(=O)N[C@H](C(=O)N[C@@H](CCCCN)C(=O)N[C@@H](CC(C)C)C(=O)N[C@@H](CCCCNC(=O)COCCOCCNC(=O)COCCOCCNC(=O)CC[C@H](NC(=O)CCCCCCCCCCCCCCCCC(=O)O)C(=O)O)C(=O)N[C@@H](CCCCN)C(=O)N[C@H](C(=O)N[C@@H](CC(C)C)C(=O)N[C@@H](CC(C)C)C(=O)N[C@@H](CCC(=O)O)C(=O)N[C@@H](CCC(N)=O)C(=O)N[C@@H](CCC(=O)O)C(=O)N[C@@H](CCCCN)C(=O)N[C@@H](CCC(N)=O)C(=O)N[C@@H](CCCCN)C(=O)NC(C)(C)C(=O)N[C@@H](CCC(N)=O)C(=O)N[C@@H](CCCNC(=N)N)C(=O)N[C@@H](CCC(=O)O)C(=O)N[C@@H](CCC(N)=O)C(=O)N[C@@H](C)C(=O)N[C@@H](CCC(=O)O)C(=O)N[C@H](C(=O)N[C@@H](CC(N)=O)C(=O)NC1(C(=O)N[C@@H](CCC(N)=O)C(=O)N[C@H](C(=O)N[C@@H](CC(C)C)C(=O)N[C@@H](C)C(=O)N[C@@H](CCC(N)=O)C(=O)N[C@H](C(N)=O)C(C)C)[C@@H](C)CC)CCNCC1)[C@@H](C)O)[C@@H](C)CC)[C@@H](C)CC)C(C)C)C(C)C) [SEQ ID NO 196]	9	2.2	–
Pentanoyl-VLSLD[dV]PIGLK([γGlu-C18 diacid])KILLEQEKQKKQREQAETN[Aib]QILAQV-NH2 (SMILES CCCCC(=O)N[C@H](C(=O)N[C@@H](CC(C)C)C(=O)N[C@@H](CO)C(=O)N[C@@H](CC(C)C)C(=O)N[C@@H](CC(=O)O)C(=O)N[C@@H](C(=O)N1CCC[C@H]1C(=O)N[C@H](C(=O)NCC(=O)N[C@@H](CC(C)C)C(=O)N[C@@H](CCCCNC(=O)CC[C@H](NC(=O)CCCCCCCCCCCCCCCCC(=O)O)C(=O)O)C(=O)N[C@@H](CCCCN)C(=O)N[C@H](C(=O)N[C@@H](CC(C)C)C(=O)N[C@@H](CC(C)C)C(=O)N[C@@H](CCC(=O)O)C(=O)N[C@@H](CCC(N)=O)C(=O)N[C@@H](CCC(=O)O)C(=O)N[C@@H](CCCCN)C(=O)N[C@@H](CCC(N)=O)C(=O)N[C@@H](CCCCN)C(=O)N[C@@H](CCCCN)C(=O)N[C@@H](CCC(N)=O)C(=O)N[C@@H](CCCNC(=N)N)C(=O)N[C@@H](CCC(=O)O)C(=O)N[C@@H](CCC(N)=O)C(=O)N[C@@H](C)C(=O)N[C@@H](CCC(=O)O)C(=O)N[C@H](C(=O)N[C@@H](CC(N)=O)C(=O)NC(C)(C)C(=O)N[C@@H](CCC(N)=O)C(=O)N[C@H](C(=O)N[C@@H](CC(C)C)C(=O)N[C@@H](C)C(=O)N[C@@H](CCC(N)=O)C(=O)N[C@H](C(N)=O)C(C)C)[C@@H](C)CC)[C@@H](C)O)[C@@H](C)CC)[C@@H](C)CC)C(C)C)C(C)C) [SEQ ID NO 195]	42	0.21	180
Pentanoyl-VLSLD[dV]PIKLK([γGlu-C18 diacid])KILLEQEKQK[Aib]QREQAETN[Aib]QILAQV-NH2 (SMILES CCCCC(=O)N[C@H](C(=O)N[C@@H](CC(C)C)C(=O)N[C@@H](CO)C(=O)N[C@@H](CC(C)C)C(=O)N[C@@H](CC(=O)O)C(=O)N[C@@H](C(=O)N1CCC[C@H]1C(=O)N[C@H](C(=O)N[C@@H](CCCCN)C(=O)N[C@@H](CC(C)C)C(=O)N[C@@H](CCCCNC(=O)CC[C@H](NC(=O)CCCCCCCCCCCCCCCCC(=O)O)C(=O)O)C(=O)N[C@@H](CCCCN)C(=O)N[C@H](C(=O)N[C@@H](CC(C)C)C(=O)N[C@@H](CC(C)C)C(=O)N[C@@H](CCC(=O)O)C(=O)N[C@@H](CCC(N)=O)C(=O)N[C@@H](CCC(=O)O)C(=O)N[C@@H](CCCCN)C(=O)N[C@@H](CCC(N)=O)C(=O)N[C@@H](CCCCN)C(=O)NC(C)(C)C(=O)N[C@@H](CCC(N)=O)C(=O)N[C@@H](CCCNC(=N)N)C(=O)N[C@@H](CCC(=O)O)C(=O)N[C@@H](CCC(N)=O)C(=O)N[C@@H](C)C(=O)N[C@@H](CCC(=O)O)C(=O)N[C@H](C(=O)N[C@@H](CC(N)=O)C(=O)NC(C)(C)C(=O)N[C@@H](CCC(N)=O)C(=O)N[C@H](C(=O)N[C@@H](CC(C)C)C(=O)N[C@@H](C)C(=O)N[C@@H](CCC(N)=O)C(=O)N[C@H](C(N)=O)C(C)C)[C@@H](C)CC)[C@@H](C)O)[C@@H](C)CC)[C@@H](C)CC)C(C)C)C(C)C) [SEQ ID NO 194]	10	0.44	–

Continued, values first:

Emax (% I) [1] [%]	EC50 [nM] (cAMP) [2]	EC50 [1] [nM]	Binder
2	0.71	–	[NMeI]VLSLD[dV]PIKLK([AEEA-AEEA-γGlu-C18 diacid])KILLEQEKQK[Aib]QREQAETN[Aib]QILAQV-NH2 (N-terminus assumed; SMILES CC[C@H](C)[C@H](NC)C(=O)N[C@H](C(=O)N[C@@H](CC(C)C)C(=O)N[C@@H](CO)C(=O)N[C@@H](CC(C)C)C(=O)N[C@@H](CC(=O)O)C(=O)N[C@@H](C(=O)N1CCC[C@H]1C(=O)N[C@H](C(=O)N[C@@H](CCCCN)C(=O)N[C@@H](CC(C)C)C(=O)N[C@@H](CCCCNC(=O)COCCOCCNC(=O)COCCOCCNC(=O)CC[C@H](NC(=O)CCCCCCCCCCCCCCCCC(=O)O)C(=O)O)C(=O)N[C@@H](CCCCN)C(=O)N[C@H](C(=O)N[C@@H](CC(C)C)C(=O)N[C@@H](CC(C)C)C(=O)N[C@@H](CCC(=O)O)C(=O)N[C@@H](CCC(N)=O)C(=O)N[C@@H](CCC(=O)O)C(=O)N[C@@H](CCCCN)C(=O)N[C@@H](CCC(N)=O)C(=O)N[C@@H](CCCCN)C(=O)NC(C)(C)C(=O)N[C@@H](CCC(N)=O)C(=O)N[C@@H](CCCNC(=N)N)C(=O)N[C@@H](CCC(=O)O)C(=O)N[C@@H](CCC(N)=O)C(=O)N[C@@H](C)C(=O)N[C@@H](CCC(=O)O)C(=O)N[C@H](C(=O)N[C@@H](CC(N)=O)C(=O)NC(C)(C)C(=O)N[C@@H](CCC(N)=O)C(=O)N[C@H](C(=O)N[C@@H](CC(C)C)C(=O)N[C@@H](C)C(=O)N[C@@H](CCC(N)=O)C(=O)N[C@H](C(N)=O)C(C)C)[C@@H](C)CC)[C@@H](C)O)[C@@H](C)CC)[C@@H](C)CC)C(C)C)C(C)C) [SEQ ID NO 200]
5	1.37	–	Pentanoyl-VLSLD[dV]PIKLK([AEEA-AEEA-γGlu-C18 diacid])KILLEQEKQKKQREQAETN[Aib]QILAQV-NH2 (SMILES CCCCC(=O)N[C@H](C(=O)N[C@@H](CC(C)C)C(=O)N[C@@H](CO)C(=O)N[C@@H](CC(C)C)C(=O)N[C@@H](CC(=O)O)C(=O)N[C@@H](C(=O)N1CCC[C@H]1C(=O)N[C@H](C(=O)N[C@@H](CCCCN)C(=O)N[C@@H](CC(C)C)C(=O)N[C@@H](CCCCNC(=O)COCCOCCNC(=O)COCCOCCNC(=O)CC[C@H](NC(=O)CCCCCCCCCCCCCCCCC(=O)O)C(=O)O)C(=O)N[C@@H](CCCCN)C(=O)N[C@H](C(=O)N[C@@H](CC(C)C)C(=O)N[C@@H](CC(C)C)C(=O)N[C@@H](CCC(=O)O)C(=O)N[C@@H](CCC(N)=O)C(=O)N[C@@H](CCC(=O)O)C(=O)N[C@@H](CCCCN)C(=O)N[C@@H](CCC(N)=O)C(=O)N[C@@H](CCCCN)C(=O)N[C@@H](CCCCN)C(=O)N[C@@H](CCC(N)=O)C(=O)N[C@@H](CCCNC(=N)N)C(=O)N[C@@H](CCC(=O)O)C(=O)N[C@@H](CCC(N)=O)C(=O)N[C@@H](C)C(=O)N[C@@H](CCC(=O)O)C(=O)N[C@H](C(=O)N[C@@H](CC(N)=O)C(=O)NC(C)(C)C(=O)N[C@@H](CCC(N)=O)C(=O)N[C@H](C(=O)N[C@@H](CC(C)C)C(=O)N[C@@H](C)C(=O)N[C@@H](CCC(N)=O)C(=O)N[C@H](C(N)=O)C(C)C)[C@@H](C)CC)[C@@H](C)O)[C@@H](C)CC)[C@@H](C)CC)C(C)C)C(C)C) [SEQ ID NO 201]
8	1.7	> 250	Ac-IVLSLD[dV]PIKLK([AEEA-AEEA-γGlu-C18 diacid])KILLEQEKQKKQREQAETN[Thp′]QILAQV-NH2 [SEQ ID NO 198]
5	1.28	–	Ac-IVLSLD[dV]PIKLK([AEEA-AEEA-γGlu-C18 diacid])KILLEQEKQK[Aib]QREQAETN[Aib]QILAQV-NH2 (SMILES CC[C@H](C)[C@H](NC(C)=O)C(=O)N[C@H](C(=O)N[C@@H](CC(C)C)C(=O)N[C@@H](CO)C(=O)N[C@@H](CC(C)C)C(=O)N[C@@H](CC(=O)O)C(=O)N[C@@H](C(=O)N1CCC[C@H]1C(=O)N[C@H](C(=O)N[C@@H](CCCCN)C(=O)N[C@@H](CC(C)C)C(=O)N[C@@H](CCCCNC(=O)COCCOCCNC(=O)COCCOCCNC(=O)CC[C@H](NC(=O)CCCCCCCCCCCCCCCCC(=O)O)C(=O)O)C(=O)N[C@@H](CCCCN)C(=O)N[C@H](C(=O)N[C@@H](CC(C)C)C(=O)N[C@@H](CC(C)C)C(=O)N[C@@H](CCC(=O)O)C(=O)N[C@@H](CCC(N)=O)C(=O)N[C@@H](CCC(=O)O)C(=O)N[C@@H](CCCCN)C(=O)N[C@@H](CCC(N)=O)C(=O)N[C@@H](CCCCN)C(=O)NC(C)(C)C(=O)N[C@@H](CCC(N)=O)C(=O)N[C@@H](CCCNC(=N)N)C(=O)N[C@@H](CCC(=O)O)C(=O)N[C@@H](CCC(N)=O)C(=O)N[C@@H](C)C(=O)N[C@@H](CCC(=O)O)C(=O)N[C@H](C(=O)N[C@@H](CC(N)=O)C(=O)NC(C)(C)C(=O)N[C@@H](CCC(N)=O)C(=O)N[C@H](C(=O)N[C@@H](CC(C)C)C(=O)N[C@@H](C)C(=O)N[C@@H](CCC(N)=O)C(=O)N[C@H](C(N)=O)C(C)C)[C@@H](C)CC)[C@@H](C)O)[C@@H](C)CC)[C@@H](C)CC)C(C)C)C(C)C) [SEQ ID NO 197]
